Data on 40 sequences can be found in the nanobody polyreactivity screen of Harvey et al. (2022).

The data set can be described thus: yeast display, Sf9 membrane polyspecificity reagent, FACS + sequencing; frameworks hold sequencing errors. The gist of the method: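 Genes from sorted yeast were amplified by colony PCR, read by MiSeq 2 × 250 sequencing and filtered on CDR length. These cells carried a synthetic nanobody library in Saccharomyces cerevisiae BJ5465 and were sorted by FACS into low and high (top ~1%) gates on anti-HA and streptavidin fluorescence. Polyreactivity is labelled according to the gate of origin.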
“QVQLVESGGGLVQAGGSLRLCCAASGSTFGYYAMGWYRQAPGKDRELVAVITWNGGGTYYADSVKGRFTISRDNAKNTVYLQMNSLKPEDTAVYDCAADASLYTDEYDYWGQGTQVTVSS”: the “polyreactivity (PSR sort gate)” value is recorded as “low polyreactivity”.

“QVQLVESGGGLVQAGGSLRLSCAASGRTFDSYTMGWYRQAPGKERELVADITFTGGSTYYADSVKGRFTISRDNAKNTVYLQMNSLKPDDTAVYYCNADREYKWYFRYDYWGQGTQVTVSS”: the “polyreactivity (PSR sort gate)” value is “low polyreactivity”.

“QVQLVESGGGLVQAGRSLRLSCAASGFIFSGNVMGWYRQAPGKERELVAAITSSGGSTYYADSVKGRFTISRDNAKNTVYLQMNSLKPEDTAVYYCATRYGGRYYWGQGTQVTVSS”: the “polyreactivity (PSR sort gate)” value is on record as “high polyreactivity”.

As for “QVQLVESGGGLVQAGGSLRLSCAASGRTFIRYAMGWYRQAPRKEREMVAAISYSGGTTYYADSVKGRFTISRDNAKNTVYLQMNSLKPEDTAVYYCARAGGYPLSRYGYWGQGTQVTVSS”, the “polyreactivity (PSR sort gate)” value is “high polyreactivity”.

With “QVQLEESAGGLVQAGGSHRLSCADTGRTFRWYAMGWYRQAPGKERELVAAISRNGGSTSFADSVKGRFTISRDNAKKTVYLQLNSLKPEDTAVYYCAAGSRVQWYGYDYWGQGTQVTVSS”, the “polyreactivity (PSR sort gate)” value is reported as “high polyreactivity”.

Take “QVQLVESGGGLVQAGGSLRLSCAASGNIFFTNAMGWYRQAPGKDRELVATISFRGTSTYYADSVKGRFTISRDNAKNTVYLQMNSLKPEDTAVYYCTARYSVFHRARVNLLGWGLYYWGQGTQVTVSS”: the “polyreactivity (PSR sort gate)” value is “low polyreactivity”.

Turning to “QVQLVESGGGLVQAGGSLRLSCDASGRIFYNYAMGWYRQEPGKERELVAAISSSGGRTYYADSVKGRFTISRDKAKNTVYLQMNSLKPEDTAVYYCAADFHDASRPYGSWGQGTQVTVSS”, the “polyreactivity (PSR sort gate)” value is recorded as “low polyreactivity”.

On to “QVQLVESGGGLVQAGGSLRLSCAASGSIFSKYTMGWSRQAPGKEWELVAVISDSGASTYYADSVKGRFTISRDNAKNTVYLEMNSLKPEDTAVYYCAAVYRGALTLYYWGQGTQVTVSS”, for which the “polyreactivity (PSR sort gate)” value is on record as “high polyreactivity”.

Consider “QVQLVESGGGLVQAGGSLRLSCAASGSIFDSYANGWSRQAPGKERELVAAISSRGGRTYYADSVKGRFTISRDNAKNTVYLQMNSLKPEDTAVYYCAAGLYRYYWYGFDYWGQGTQVTVSS”, for which the “polyreactivity (PSR sort gate)” value is given as “high polyreactivity”.

On to “QVQLVESGGGLVHAGGTIEPYAMGWYRQAPGKERELVAPIRTSGGGTYYADSVKGRFTISRDNAKNTVYLQMYSLKPEDTAVYYCAAKSGPTLQRYYSYIFDYWGQGTQVTVSS”, for which the “polyreactivity (PSR sort gate)” value is reported as “low polyreactivity”.

Turning to “QVQLVESGGGLVQAGGSLRLSCAASGITFYDYAMGWYRQAPGKERELVAAISFSGSRTYYADSVKGRFTISRDIAKNTVYLQMNSLKPEDTAVYYCAASQARNYKIYDYWGQGTQVTVSS”, the “polyreactivity (PSR sort gate)” value is on record as “high polyreactivity”.

As to “QVQLVESGGGLVQAGGSLRLSCAASGNTFYWNAMGWYRQAPGKERELVAAITSSGGSTYYADSVKGRITISRDNAKNTVYLQMNSLKPEDTAVYYCNKDIERYVRIYDSWGQGTQVTVSS”, the “polyreactivity (PSR sort gate)” value is “low polyreactivity”.

On to “QVQLGESGGGLVLAGGSLRLSCAASGSIFTHYAIGWYRQAPGKERELVAAISWSGGSTYYADSVKGRFTISRDNAQNTVYLQMNSLKPEDTAVYYCAALYYSRLSVSGEYDYWGQGTQVTVSS”, for which the “polyreactivity (PSR sort gate)” value was “high polyreactivity”.

Take “QVQLVESGGGLVQAGGSLRLSCAASGFIFHPYAMGWYRQAPGKERELVATITWSDDSTYYADSVKGRFTISRDNAKNTVYLQMNSLKPEDTAVYYCAARHKQHNRYDYWGQGTQVTVSS”: the “polyreactivity (PSR sort gate)” value was “low polyreactivity”.

With “QVQLVESGGGLVQAGGSLRLSCAASGITFWDYAMGWYRQAPGTERELVAANSRSGGSTYYADSVKGRFTISRDNAKKTVYLQMNSLKPEDTAVYFCAAYTRRPIYDYWGQGTQVTVSS”, the “polyreactivity (PSR sort gate)” value is reported as “high polyreactivity”.

Take “QVQLVESGGGLVQAGGSLRLSCAASGITFLWNVMGWYRQAPGKERELVATITSIGGITNYADSVKGRFTISRDNAKNTVYLQMNSLKPEDTAVYYCARDDRDIRGESGREGFLYDYWGQGTQVTVSS”: the “polyreactivity (PSR sort gate)” value was “low polyreactivity”.

With “QVQLVESVGGLVQAGGSLRLSCAASGRTFTYNSMGSYRQAPGKERELVAAITRRGGSTYYADSVKGRFTISRDNAKNTVYLQMNSLKPEDTAVYYCAATGYLRTYDYWGQGTQVTVSS”, the “polyreactivity (PSR sort gate)” value was “high polyreactivity”.

For the sequence “QVQLVESGGGLVQAGGSLRLSCAASGNTVDGNAMGWYRPAPGKERELVAAINYSGASTYYADSVKGRFTISRDNAKNTVYLQINSLKPEDTAVYYCAADDYTASDRYWHDYWGQGTQVTVSS”, the “polyreactivity (PSR sort gate)” value is reported as “low polyreactivity”.

For the sequence “QVQLVESVGGLVQAGGSLRLSCAASGFNFRVYPMGWYRPAPRKERELVAAISVSGGSTTYADSVNGRFTISRDNAKNTVYLQMNSLKPEDTAVYYCAADYDFFSLYLYDYWGQGTQVTVSS”, the “polyreactivity (PSR sort gate)” value is listed as “low polyreactivity”.

Take “QVQLVESGGVLDQAGGSLRLSCAASGRIYFNKAMGWYRPAPGKEWELVAAINAGGRTNYADSVKGRFTISRDNEKNTVFLHMTSLKQEDTSVYYCNADDNPVWEYDYWGQGTQVTVSS”: the “polyreactivity (PSR sort gate)” value was “low polyreactivity”.

Regarding “QVQLVESGGGLVQAGGSLRLSCDASGGIFFYNTLRCSRQAPGKERELVAAITTNGDSTYYADSVKGRFTISRDNAKYTVYLQMNSLKPVDTAVYYCATPLELFASFSFSHYVYLFDSWGQGTQVNVSS”, the “polyreactivity (PSR sort gate)” value is reported as “low polyreactivity”.

Take “QVQLVESGGGLVQAGGSLRLSCAASGSIFKVYAMGWYRQAPGTERELVAGITLNGGSTYYADSVKGRFTISRDNAKNNVYLQMNSLKPEDTAVYYCNAVYSYYYRWYYDFDYWGQGTQVTVSS”: the “polyreactivity (PSR sort gate)” value is on record as “high polyreactivity”.

For “QVQLVESGGGLVQAGGSLRLSCAASGPIFTSNAMGWYRQAPGKERELVAAISRRGTRTYYADSVKGRFTISRDNAKNTVYLQMNSLKPEDTAVYYCAAGWTTRYFGGVDYWGQGTQVTVSS”, the “polyreactivity (PSR sort gate)” value is reported as “high polyreactivity”.

“QDQLVESGGGLVQAGGSLRLSCAASGITFRYYAKGWYRPSPGKERELLAAISTSGGNTYYADSVKGRLTISRDNAKNTVYLQMKSLKPEDTAVYYCDVDGEYWYEYDGDYWGQGTQVNVSS”: the “polyreactivity (PSR sort gate)” value was “low polyreactivity”.

For the sequence “QVQLVESGGGLVQAGGSLRLSCAASGRIFHYYAMGWYRQAPGKERELVAAITSSGGSTYYADSVKGRFTISRDNAKNTVYLQMNSLKPEDTAVYYCAAGLIVGRFLRYDYWGQGTQVTVSS”, the “polyreactivity (PSR sort gate)” value was “high polyreactivity”.

As for “QVQLVESGGGLVQAGGSLRLSCAASGSIFKYYAMGWYRQAPGKERELVAAISSGGSTKYADSVKGRFTISRDNAKNTVYLQMNSLKPEDTAVYYCAARDPSRHARRAYDYWGEGTQVTVSS”, the “polyreactivity (PSR sort gate)” value is “low polyreactivity”.

On to “QVQLVESGGGLVQAGGSLRLSCAASGRTFAHNAMGWYRQAPGKERELVAAITWSGGTTYYADSVKGRFTISRDNAKNTVYLQMNSLKPEDTAVYYCNTYSYQPDPKYDYWGQGTQVTVSS”, for which the “polyreactivity (PSR sort gate)” value is “low polyreactivity”.

For “HVQLQERGGGLVQAGGSLRLSCAASGSIFQATYMGWYRQAPGKEREFVASITYGSITNYADSVKGRFTIGRDNAKDTLYLQMNSLKPEDTAVYYCAVDRHYIPAFHYWGQCTQVTVSS”, the “polyreactivity (PSR sort gate)” value is recorded as “low polyreactivity”.

Consider “QVQLVESGGGLVQAGGSLRISCAASGFTFVSNDMGWYRQAPGKERELVAAISQGGGSTYYADSVKGRFTISRDNAKNTVYLQMNSLKPEDTAVYYCAADIWARYYFWGFEHDYWGQGTQVTVSS”, for which the “polyreactivity (PSR sort gate)” value is “low polyreactivity”.

“QVQLVESGGGLVQAGGSLRLSCAASGLTFPYYAMGWYRQAPGKERELVASISWSGASTYYADSVKGRSTISRDYAKNTVYLQMNSLKPEDTAVYYCNAGFYGSYDYWGQGTQVTVSS”: the “polyreactivity (PSR sort gate)” value was “high polyreactivity”.

Turning to “QVQLVESGGGLVQAGGSLRLSCAASGSIFDNYAMGWYRQAPGKERELVAAINFSDGDTYYADSVKGRFTISRDNAKNTVYLQMNSLKPEDTAVYYCAAEVWYPPEYYDEYDYWGQGTQVTVSS”, the “polyreactivity (PSR sort gate)” value was “low polyreactivity”.

Turning to “QVQLVESGGGLVQAGGSLRLSCAASGSTFPVYAMGWYRQAPGKERELVAAISRAGSTNYADSVKGRFTISRDNAKNTVYLQMNSLKPEDTAVYYCAARGYLWAGEWYVRRDYWGQGTQVTVSS”, the “polyreactivity (PSR sort gate)” value is “high polyreactivity”.

With “QVQLVESGGGLVHAGGSLRLSCAASGFSFNTYAMGWYRQAPGKERELVADISSGGSTNYADSVKGRFTISRDNAKNTVFLQMNSLKPEDTAVYYCSADYYFLDWYDYWGQGTQVSVSS”, the “polyreactivity (PSR sort gate)” value is on record as “low polyreactivity”.

Turning to “QVQLVESGGGLVQAGGSLRLSCAASGRTISYAMGWYRQAPGKERELVAAIRYRGGSTYYADSVKGRFTISRDNAKNTVYLQMNSQKPEDTAVYYCAAQDSYTPPILFRRGYLRYDYWGQGTQVTVSS”, the “polyreactivity (PSR sort gate)” value is “low polyreactivity”.

For “QVQLLESGGGLVQARGSLRLSCAASARTIFKNAMAWYRQAPGKERELVARISWNGGDSTYYADSVTGRFTISRDNAKNTVYLQMNSLKPEDTAVYSCAADTSYRPGGSRQGYGYWGQGTQVTVSS”, the “polyreactivity (PSR sort gate)” value is “low polyreactivity”.

Take “QVQLVESGGGLVQAGGSLRLSCAASGLPSKLMHMGWYRQAPGKERELVAAISSSGGRTYYADSVKGRITISRDNAKNTVYLQMNILKPEDTAVYYCAATARYRSYSASYYWGQGTQVTVSS”: the “polyreactivity (PSR sort gate)” value is on record as “high polyreactivity”.

On to “QVQLVDSGGGLVQAGGSLRLSCAASGFTFSTNAMGWYRQAPGKERELVAGITSSGGNTYYADSVKGRFTISRDNAKNTVYLQMNSLKPEDTAVYYCAKRRNYVAYDYWGQGTQVTVSS”, for which the “polyreactivity (PSR sort gate)” value is on record as “high polyreactivity”.

With “QVQLVESGGGLVQAGGSLRLSCAASGSTFWGYGMGWYRQAPGKERELVATINQSAGSTYYADSVKGRFTISRDNAKNTVYLQLNSLNPEDPAAYYCATDLIQGAAPFRYDYWGQGTQVTVSS”, the “polyreactivity (PSR sort gate)” value was “low polyreactivity”.

For “QVQLVESGGGLVQAGGSLSLSCDASGRIFPKYAMGWYRQAPGKEREMVAGITKLVGSTYYADSVKGRFTISRDNAKNTVYLQMNSLKPEDTAVYYCAADYSYLIDYLDPEKEGMDFWGQGTQVTVSS”, the “polyreactivity (PSR sort gate)” value is given as “low polyreactivity”.

Regarding “QVQLVESGGGLVQAGGSLRLSCAASGSIFVYYTMGWYRQAPGKVRELVATITFRGNTYYADSVKGRFTISRDNAKNTVYLQMNSLKPEDTAVSYCAATRYGHRYYYRPYEYWGQGTQVTVSS”, the “polyreactivity (PSR sort gate)” value is reported as “high polyreactivity”.
